From the nanobody polyreactivity screen of Harvey et al. (2022) come the findings set out here.

The series in a line: yeast display, Sf9 membrane polyspecificity reagent, FACS + sequencing; frameworks hold sequencing errors. The gist of the method: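 Sorting gates, low and high (top ~1%), were placed on anti-HA fluorescence to track expression and on streptavidin fluorescence to track reagent binding. A clone's polyreactivity label is taken from the gate it came out of. The reagent was 10% biotinylated, detergent-solubilized Sf9 membrane, applied for 1 hour at 4 °C to galactose-induced yeast display cells.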
Turning to “QVQLVESGGGLVQAGGSLRLSCAASGRTFGTYVMGWYRQAPGKERELVAAITGSGGSTYYADSVKGRFTISRDNAKNTVYLQMNSLKPEDPAVYYCAARAYQHYNWGQGTQVTVSS”, the “polyreactivity (PSR sort gate)” value was “high polyreactivity”.
With “QVQLVESGGGLVQAGGSLRLSCAASGRTFGVNAMGWYRQAPRKERELVARIRVSGGRTYYADSVKGRFTISRDNAKNSVYLLMNSLKPEDTAVYYCNAGDTYNRVIWPYYYCGQGTQVTVSS” the entry was “high polyreactivity”; with “QVQLVESGGGLVQAGGSLRLSCAASGRTFGVYAMGWYRQAPGKERELVAAIRWSGGGTYYADSVKGRFTISPDNAKNTVYLQMNSLKPEDTAVYYCAATFQNSPYTRYTDMYYWGQGTQVTVSS”, “low polyreactivity”; with “QVQLVESGGGLVQAGGSLRLSCAASGRTFGVYAMGWYRQAPGKERELVAAISKSDGSTYYADSVKGRFTISRDNAKNTVYLQMNSLKPEDTAVYYCATVTRHQRDTQYDYWGQGTQVTVSS”, “low polyreactivity”.
With “QVQLVESGGGLVQAGGSLRLSCAASGRTFGVYAMGWYRQAPGKERELVAGIRWRGGSTYYADSVKGRFTISRDNAKNTVYLQMNSLKPEDTAVYYCAAKVYYLYDSIWAWVIIRYDYWGQGTQVTVSS” the entry was “low polyreactivity”; with “QVQLVESGGGLVQAGGSLRLSCAASGRTFGVYAMGWYRQAPGKERELVATIRRGGSTYYADSVKGRFTISRDNAKNTVYLQMNSLKPEDTAVYYCNASHVTWNRKYDYWGQGTQVTVSS”, “low polyreactivity”.
For “QVQLVESGGGLVQAGGSLRLSCAASGRTFGVYAMGWYRQAPGKERELVPAIRWSGGGTYYADSVKGRFTISRDTAKNTVYVQMNSLKPEDTAVYYCAASFQNSPYTRYTDMYYWGQGTQVTVTS” the value was “low polyreactivity”.
In the case of “QVQLVESGGGLVQAGGSLRLSCAASGRTFGVYMGWYRQAPGKERELVAVISSGDSTNYADSVKGRFTISRDNAKNTVYLQMNSLKPEDTAVYYCNAYGSDRLTLDDYWGQGTQVTVSS”, the “polyreactivity (PSR sort gate)” value was “low polyreactivity”.
For “QVQLVESGGGLVQAGGSLRLSCAASGRTFGWNAMGWSRQAPGKERELVAAISRTGNTYYADSVKGRFTISRDNAKNTVYLQMNSLKPEDTAVYYCAKGRYYTPTYFRGVDLYDYWGQGTQVTVSS” the value was “low polyreactivity”; for “QVQLVESGGGLVQAGGSLRLSCAASGRTFGWNAMGWYIQAPGKERELVAAITSGGSTSYADSVKGRFTISRDNEKNTVYLQMNCLKPEDTAVYYCAAYLGIYSRVNYWGQGTQVTVSS”, “low polyreactivity”; for “QVQLVESGGGLVQAGGSLRLSCAASGRTFGWNVMGWYRQAPGKERELVAAISGGGTSTYYADSVKGRFTISRDNAKNTVYLQMNSLKPEDTGVYYCNAYYPGSYYPRSGRYDYWGQGTQVTVSS”, “high polyreactivity”.
With “QVQLVESGGGLVQAGGSLRLSCAASGRTFGWNVMGWYRQAPGKERELVAAISGSGASTYYADSVKGRFTISRDNAKNTVYLQMNSLKPEDTAVYYCAAVQGYRFYEYYYWGQGTKVTVSS” the entry was “low polyreactivity”.
With “QVQLVESGGGLVQAGGSLRLSCAASGRTFGYAMGWYRQAPGKERERVAAISSGGGRTYYADSVKGRFTISRDNAKNTVYLQMNSLKPEDTAVFYCNARHIFGASRRARFGYWGQGTQVTVSS” the entry was “high polyreactivity”; with “QVQLVESGGGLVQAGGSLRLSCAASGRTFGYNAMAWYRQAPRKERELVAAISRGGSTNYADSVKGRFTISRDNAKNTVYLQMNSLKPEDTAVYYCAAYDWRVLWGYDYWGQGTQVTVSS”, “low polyreactivity”.
In the case of “QVQLVESGGGLVQAGGSLRLSCAASGRTFGYNAMGWYRQAPGKERELVAAINDGGSTNYADSVKGRFTISRDNAKNTVYLQMNSLKPEDTAVYYCATDFSNGRQSTFPYEYYYWGQGTQVTVSS”, the “polyreactivity (PSR sort gate)” value is on record as “high polyreactivity”.
With “QVQLVESGGGLVQAGGSLRLSCAASGRTFGYNAMGWYRQAPGKERELVAAITYSGGRTSYADSVKGRFTISRDNAKNTVYLQMNSLKPEDTAFYYCAAQPRYYSGYNYWGQGTQVTVSS” the entry was “high polyreactivity”; with “QVQLVESGGGLVQAGGSLRLSCAASGRTFGYNGMGWYRQAPGKEREFVAAITWSGGRTYYADSVKGRFTISRDKAKNTVYLQMNSLKPEDTAVYYCAAGKYRYTYYALEYDYWGQGTQVTVSS”, “low polyreactivity”.
Consider “QVQLVESGGGLVQAGGSLRLSCAASGRTFGYNTMGWYRQAPGKEREFVATIRTNGVSTYYADSVKGRFTISRDNAKNTVYLQMNSLKPEDTAVYYCNAPRTRKQKTIYVNAPGNYWGQGTQVTVSS”, for which the “polyreactivity (PSR sort gate)” value is “low polyreactivity”.
Regarding “QVQLVESGGGLVQAGGSLRLSCAASGRTFGYNVMGWYRQAPGKEMELVAGITSSGSTNYADSVKGRFTISRDNAKNTVYLQMNSLKPEDTAVYYCNADRLITWQLLYISSYRYDYWGQGTQVTVSS”, the “polyreactivity (PSR sort gate)” value was “high polyreactivity”.
In the case of “QVQLVESGGGLVQAGGSLRLSCAASGRTFGYYAMGWYRPAPGKEREFVAAISFRTTSTYYADSVKGRFTISRDNAKNTVYLQLNSLKPEDTAVYYCNVVVKGAWDYYPYDYWGQGPQVTVSS”, the “polyreactivity (PSR sort gate)” value was “high polyreactivity”.
With “QVQLVESGGGLVQAGGSLRLSCAASGRTFGYYAMGWYRPAPGKERELVAAISSGGRTYYADSVKGRFTISRDNAKNTVYLQMNSLKPEDTAVYYCNAASLVAYLARLGRDYWGQGTQVTVSS” the entry was “low polyreactivity”; with “QVQLVESGGGLVQAGGSLRLSCAASGRTFGYYAMGWYRPAPGKERELVASITGGGSTNYADSVKGRFTISRDNAKNTVYLQMNSLKPEDTAVYYCAAETITDDYYEYDYWGQGTQVTVSS”, “low polyreactivity”; with “QVQLVESGGGLVQAGGSLRLSCAASGRTFGYYAMGWYRPEHGTERELVAAITRTGGSTHYADSVKGRFTISRDNAKNTVYLQMNSLKPEDTAVYYCARDYRYTIPYDYWGQGTQVTVSS”, “low polyreactivity”.
For “QVQLVESGGGLVQAGGSLRLSCAASGRTFGYYAMGWYRQAPGIERELVATITWGDGTTYYADSVKGRFTFSRDNAKNTVYLQMNILKPEDTAVYYCAVDRSSWWWDDYRYDYWGQGTQVTVSS” the value was “low polyreactivity”; for “QVQLVESGGGLVQAGGSLRLSCAASGRTFGYYAMGWYRQAPGKERELVAAINSRGGSTYYADSVKGRFTISRDNAKNTVYLQMNSLKPEDTAVYYCAVVRWRHYIFATYDYWGQGTQVTVSS”, “high polyreactivity”.
As to “QVQLVESGGGLVQAGGSLRLSCAASGRTFGYYAMGWYRQAPGKERELVAAISRSGSRTYYADSVKGRFTISRDNAKNTVYLQMNSLKPEDTAVYYCNKVKEFYVPTEYDYWGQGTQVTVSS”, the “polyreactivity (PSR sort gate)” value is given as “high polyreactivity”.
For “QVQLVESGGGLVQAGGSLRLSCAASGRTFGYYAMGWYRQAPGKERELVAAISTRSGSTYYADSVKGRFTISRDNAKNTVYLQMNSLKPEDTAVYYCDADSYPDYDYWGQGTQVTVSS” the value was “low polyreactivity”; for “QVQLVESGGGLVQAGGSLRLSCAASGRTFGYYAMGWYRQAPGKERELVAAISYSSTITYYAGSVKGRFTISRDNAKNTVYLQMNSLKPEDTAVYYCAAYSTRGVEYDYWGQGTQVTVSS”, “high polyreactivity”; for “QVQLVESGGGLVQAGGSLRLSCAASGRTFGYYAMGWYRQAPGKERELVASISWIGDDTYYADSVKGRFTISRDYAKNTVYLQMNSLKPEDTAVYYCNAVYAGRYFGFDYWGQGTQVTVSS”, “high polyreactivity”.
With “QVQLVESGGGLVQAGGSLRLSCAASGRTFGYYGMGWYRQAPGKEREFFAAITRSGGSTYYADSVKGRFTISRDNAKNTVYLQMNSLKPEDTAVYYCAAAHLFTRSRPYDYWGQGTQVTVSS” the entry was “high polyreactivity”; with “QVQLVESGGGLVQAGGSLRLSCAASGRTFGYYTMGWYRQAPGKEREFVAAISGSGTITFYADSVKGRFTISRDNAKNTVYLQMNSLKPEDTAVYYCAADYRYGGSRGYRYDYWGQGTQVTVSS”, “low polyreactivity”.
With “QVQLVESGGGLVQAGGSLRLSCAASGRTFGYYTMGWYRQAPGKERELVATITSSGGSTYYADSVKGRFTISRDNAKNTVYLQMNSLKPEDTAVYYCAARRKQGAYDYWGQGTQVTVSS”, the “polyreactivity (PSR sort gate)” value is listed as “high polyreactivity”.
With “QVQLVESGGGLVQAGGSLRLSCAASGRTFHANAMGWYRQAPGKERELVAAISYRTGSTYYADSVKGRFTISRDNAKNTVYLQMNILKPDDTAVYYCDVDTRYGYGYWGQGTQVTVSS” the entry was “high polyreactivity”.
Consider “QVQLVESGGGLVQAGGSLRLSCAASGRTFHGYAMGWYRQAPGKERELVARINWSDGRTYYADSVKGRFTISRDNAKNTVYLQMNSLKPEEPAVYYCAATRYYYYWYVYEDRGDFWGQGTQVTVSS”, for which the “polyreactivity (PSR sort gate)” value is recorded as “low polyreactivity”.
For “QVQLVESGGGLVQAGGSLRLSCAASGRTFHTNAMGWYRQAPGKERELVAAITRSGSGTYYADSVKGRFTISRDNAKNTVYLQMNSLKPEDTAVYYCNAVRRGEYDYWGQGTQVTVSS” the value was “high polyreactivity”; for “QVQLVESGGGLVQAGGSLRLSCAASGRTFHYNAMGWYRQAPGKERELVAAITRSGGSTYYADSLKGRFTISRVNAKNTVYLQMNSLKPEDTAVYYCAAGWRSVSVRYYGPSDYWGQGTQVTVSS”, “low polyreactivity”.
As for “QVQLVESGGGLVQAGGSLRLSCAASGRTFHYYAMGWYRQAPGKERELVAGITGGGSTYYADSVKGRFTISRDNAKNTVYLQMNSLKPEDTAVYYCNARPYWFGSYGYWGQGTQVTVSS”, the “polyreactivity (PSR sort gate)” value is recorded as “low polyreactivity”.
With “QVQLVESGGGLVQAGGSLRLSCAASGRTFHYYAMGWYRQAPGKERELVASISSGGSTHYADSVKGRFTISRDNANNTGYLQMNSLKPEDTAVYYCNRVDGYGPRNKVPYVTYGVYYWGQGTQVTVSS” the entry was “low polyreactivity”; with “QVQLVESGGGLVQAGGSLRLSCAASGRTFIEYAMAWYRQAPGKERELVAAISRNDGGSTYYADSVKGRFTISRDNAKNTVYLQMNSLKPEDTAVYYCAARRYISAHVRYGSWGQGTQVTLSS”, “high polyreactivity”; with “QVQLVESGGGLVQAGGSLRLSCAASGRTFIGYAMGWYRQAPGKERELVAAISRGGSTKYADSVKGRFTISRDNAKNTVYLQMNSLKPEDTAVYYCAVGWSYYAGLRHRYYSGFDYWGQGTQVTLSS”, “low polyreactivity”.
